Laboratory results published in paper PMC7897774.

Target: HLA-A*02:01
Test: differential scanning fluorimetry

Row | Tm of the peptide/HLA-A*02:01 complex | Molecule
1 | 61.7 °C | F7A-modified PMEL_(209(2M)–217) epitope (peptide)
2 | 61.9 °C | IMDQVPFSV [PMEL_(209(2M)–217) epitope (…)]
